Measured values taken from patent US8323941B2, “Histone demethylation mediated by the nuclear amine oxidase homolog LSD1” (President and Fellows of Harvard College, priority 2004, dated 2012).

Key:
[1] = target: T1, HIS-LSD1 (Homo sapiens, UniProt O60341); assay: Demethylase assay on histone H3 peptides, Western blotting with methyl-specific antibodies; format: biochemical; design: Full length (1-851aa) and C-terminal deleted (1-427 aa) human LSD1 cDNAs; 6xHis (N); made in house; host or cells: bacteria (IPTG induction); conditions: 1 μg LSD1, 1 nmole peptide; modification-specific antibody
From the text: LSD1 is a flavin-containing protein based on its ability to bind FAD ((Humphrey et al., 2001), and data not shown). Its sequence homology with amine oxidases predicts that LSD1 may catalyze oxidation reactions of biogenic amines including monoamine, polyamines or N-methylated protein substrates (such as histones) (Bannister et al., 2002). Amine oxidation catalyzed by flavin-containing amine oxidase is characterized by oxidative cleavage of the a-carbon bond of the substrate to form an imine intermiediate, which, in turn, is hydrolyzed to form an aldehyde and amine via a non-enzymatic process. In a complete catalytic cycle, the cofactor FAD is reduced to FADH2 and then is likely to be re-oxidized by oxygen to produce hydrogen peroxide (Binda et al., 2002). […] The HIS-LSD1 proteins were incubated with histone H3 peptides carrying dimethylated K4 (diMeK4H3) or K9 (diMeK9H3) and the methylation status was determined using a diMeK4H3 or diMeK9H3 specific antibody, respectively. […]
Demethylase assay. […] The reaction mixture was analyzed by SDS-PAGE/Western blotting using methyl-specific antibodies, or by formaldehyde formation assay to examine the removal and conversion of the methyl group to formaldehyde, or by mass spectrometry to identify the demethylated peptide.

[2] = target: T1, HIS-LSD1; assay: Demethylation-FDH coupled spectrophotometric assay (formaldehyde formation); format: biochemical; design: Full length (1-851aa) and C-terminal deleted (1-427 aa) human LSD1 cDNAs; 6xHis (N); made in house; conditions: for formaldehyde production (absorbance at OD 340 nm): peptide used as substrate of HIS-LSD1
From the text: We used a third independent method to investigate the possibility that LSD1 is a histone demethylase. […] To determine whether formaldehyde was produced in LSD1-mediated enzymatic reactions, we first used the formaldehyde dehydrogenase (FDH) assay to detect the presence of formaldehyde (Lizcano et al., 2000). This assay employs formaldehyde dehydrogenase to convert formaldehyde to formic acid using NAD^+ as the electron acceptor, whose reduction to NADH can be spectrophotometrically measured at OD 340 nm. Thus, when the demethylation reaction is coupled with the FDH assay, the enzymatic activity of LSD1 and reaction kinetics can be determined by measuring the production of NADH. A standard curve was first generated using purified FDH (EC 1.2.1.46), NAD^+ and different concentrations of formaldehyde ranging from 1 μM to 10 mM, within which a linear relationship was found between the production of NADH and the range of formaldehyde used in the assay. Subsequently, the coupled demethylation-FDH assays were carried out within this linear range and were initiated with the addition of the diMeK4H3 substrates. The continuous production of the formaldehyde as the demethylation proceeded was monitored by OD measurement at 340 nm at different time points. […] We next used the demethylation-FDH coupled spectrophotometric assay as another independent means to investigate the substrate specificity of LSD1.
Formaldehyde Dehydrogenase (FDH) assay. Formaldehyde formation was continuously monitored by a coupled spectrophotometric assay (Lizcano et al., 2000) using formaldehyde dehydrogenase (FDH). […] The absorbance at 340 nm (ε340=6.22 mM^−1 cm^−1 for NADH) was measured at each time point in a 0.5 min interval using Beckman DU640 spectrophotometer. The OD 340 nm absorbance at the moment of the substrate addition was considered as 0 and this was used as the 0 min time point. Over a 10 min period, a kinetic software program automatically recorded the absorbance at each time point. The data were analyzed using the Excel program. […]

[3] = system: SCN2A; conditions: Rat-1 fibroblast cells, TSA treatment; cited from earlier work
[4] = target: LSD1 (Homo sapiens, UniProt O60341); assay: LSD1 demethylation assay on nucleosomal substrates (mononucleosomes), Western blotting; format: biochemical; design: Full length (1-851aa) and C-terminal deleted (1-427 aa) human LSD1 cDNAs; 6xHis (N); made in house; host or cells: bacteria; conditions: for stimulation of LSD1 demethylation activity: CoREST deletion mutants
Procedure: Preparation of mononucleosome. Mononucleosome was made according to a standard protocol (Tagami et al., 2004; Utley et al., 1996). Briefly, nuclear pellet from both TSA-treated or non-treated HeLa cells was homogenized for 60 times with type A pestle to obtain oligo-nucleosomes. The oligo-nucleosomes were then digested with micrococcal nuclease (40 units/mL) for 10 mins at 30° C. The nuclease is inactivated by 5 mM EDTA. Digested materials were spun at 14000 rpm for 3 mins. Resulting supernatant was spun again for additional 3 mins at the same speed. Supernatant from the second spin was subject to 10-25% glycerol gradient sedimentation. The monocleosome-containing fractions were identified by examining aliquots of fractions (treated with proteinase K) on DNA agarose gel. An aliquot of TSA-treated or non TSA-treated mononucleosome, a kind gift from Dr. Yoshihiro Nakatani's Lab in Dana Faber Cancer Institute, Harvard Medical School (Tagami et al., 2004), was used here as a control for the quality of mononucleosome made in our lab.
Demethylation assay. LSD1 demethylation activity on free histone or nucleosomal histone was carried out as previously reported (Shi et al., 2004). Briefly, bulk histones or mononucleosomes were incubated with purified His-LSD1 with or without purified His-CoREST, His-CoREST mutants, His-BHC80 and/or GST-HDAC1 in the histone demethylase activity (HDM) assay buffer (50 mM Tris pH8.5, 50 mM KCl, 5 mM MgCl, 0.5% BSA and 5% glycerol) from 10 mins up to 1 hour at 37° C. The demethylase activity of LSD1 under various conditions was evaluated by Western blotting using K4-H3 methylation-specific antibodies.

[5] = system: LSD1 target genes; assay: RT-PCR of LSD1 target genes / mRNA in HeLa cells; format: cell-based, human; conditions: TSA treatment
From the text: RT-PCR. Total RNA samples were isolated from 2×10^6 cells by Trizol reagent (Sigma). After DNase treatment, the RNA samples were purified by phenol-chloroform extraction and ethanol precipitation. 38 PCR cycles were used for SCN1A, SCN2A, SCN3A and M4 AchR and 28 PCR cycles for GAPDH. Primers used in RT-PCR were as follows: SCN1A up (5′-[…]-3′; SEQ ID NO: 1), down (5′-[…]-3′; SEQ ID NO: 2); SCN2A up (5′-[…]-3′; SEQ ID NO: 3), down (5′-[…]-3′; SEQ ID NO: 4) SCN3A up (5′-[…]-3′; SEQ ID NO: 5), down (5′-[…]-3′; SEQ ID NO: 6); p57^KIP2 up (5′-[…]-3′; SEQ ID NO: 7), down (5′-[…]-3′; SEQ ID NO: 8); GAPDH up (5′-[…]-3′; SEQ ID NO: 9), down (5′-[…]-3′; SEQ ID NO: 10).
(§1) Knockdown LSD, CoREST and Proteasome inhibitor (PI) treatment. Stable cell lines which express mutant GFP-shRNA, CtBP-shRNA, LSD1-shRNA or CoREST-shRNA were generated as previously described (Shi et al., 2003; Sui et al., 2002). To prevent proteasome-mediated protein degradation, the cells were treated with ZL3VS at final concentration 10 μM for 24 hours in culture then harvested. The protein and mRNA levels of the shRNA-knockdown cells with or without PI treatment were estimated by Western blotting and RT-PCR as previously described (Shi et al., 2004).

[6] = target: T2, GST-LSD1 (Homo sapiens, UniProt O60341); assay: GST pulldown of HIS-tagged CoREST and mutants; format: binding; conditions: Coomassie Blue staining
T2 construct: made in house; host or cells: bacteria (inferred from 'similar procedure' to the His-tagged proteins)
Procedure: To identify domains of CoREST that are involved in physical interactions with LSD1, GST-LSD1 or GST was incubated with bacterially purified, HIS-tagged CoREST and its mutant derivatives. […] This places the putative LSD1-binding domain within the C-terminal functional domain of CoREST, somewhere between aa 293-381 of CoREST. […] We therefore speculate that the SANT2 domain may be involved in mediate binding to the nucleosomal substrate. Taken together, these findings are consistent with the idea that CoREST functions as a bridging protein. The weak stimulatory activity of the N-terminal CoREST (del1, aa 1-293) remains unclear at the present time.
GST and GSTLSD1 plamsids were kind gifts from Dr. Tadashi Baba's Lab in Japan (Iwase et al., 2004). Expression and purification of GST and GSTLSD1 proteins were done using similar procedure as outlined for purification of his-tagged recombinant proteins. For GST-bead pulldown experiment, 2 μg of each purified his-tagged wt or del CoREST proteins were incubated with 5 μg of bound GST and GSTLSD1 proteins at 4° C. for 4 hrs in a binding buffer (50 mM Tris, pH 8.0, 300 mM NaCl, 1 mM DTT, 0.5 mM EDTA and 0.1% NP-40). The beads were washed 3 times in the binding buffer, resuspended in 2×SDS protein sample buffer, boiled for 5 mins and loaded onto 15% SDS PAGE gel. The gel was then stained with Coomassie Blue.

[7] = system: LSD1; assay: LSD1 protein level in knockdown cells (immunostaining, Western blotting); format: cell-based, human; conditions: CoREST shRNA treated cells; 10 μM for 24 hours
Procedure: as §1

With “diMeK4H3: Synthetic histone H3 peptide (1-21 aa) carrying dimethylated K4” the “dimethylation level of H3 peptide after incubation with LSD1” value [1] was “effectively reduced dimethylation level at K4”, the “formaldehyde production (absorbance at OD 340 nm)” value [2] was “robust increase” and the Km ([2]; purified HIS-LSD1, Lineweaver-Burk transformation, read-out: apparent Km for the diMeK4H3 substrates) was ~30 µM.
In the case of CC(/C=C/C(=O)NO)=C\[C@@H](C)C(=O)c1ccc(N(C)C)cc1 [TSA, Trichostatin A], the SCN2A expression [3] is listed as “unaffected”, the “difference in CoREST/LSD1-mediated demethylation, untreated vs TSA-treated nucleosomes” value ([4]; hyperacetylated nucleosomes isolated from TSA-treated HeLa cells, less susceptible) is listed as “approximately 4 fold” and the “expression of LSD1 target genes SCNA2 and SCNA3” value [5] is listed as “de-repression”.
For “del 5: CoREST deletion mutant aa 293-381”, the “stimulation of LSD1 demethylation activity” value [4] was “fail to stimulate its activity” and the “binding to LSD1” value [6] was “bound LSD1”.
In the case of “HDAC1: Bacterially purified histone deacetylase 1”, the “effect of added protein on ability of recombinant LSD1 to demethylate nucleosomal substrates” value ([4]; bacterially purified protein added to recombinant LSD1) is reported as “no effect”.
In the case of CC(C)C[C@@H](/C=C/S(C)(=O)=O)NC(=O)[C@H](CC(C)C)NC(=O)[C@H](CC(C)C)NC(=O)OCc1ccccc1 [ZL3VS], the “LSD1 steady state level” value [7] is reported as “restored the LSD1 steady state level”.
For “del 3: CoREST deletion mutant aa 105-381”, the “stimulation of LSD1 demethylation activity” value [4] was “fail to stimulate its activity” and the “binding to LSD1” value [6] was “bound LSD1”.
In the case of “diMeK9H3: Synthetic histone H3 peptide (1-21aa) carrying dimethylated K9”, the “dimethylation level of H3 peptide after incubation with LSD1” value [1] is reported as “failed to reduce the dimethylation level at K9” and the “formaldehyde production (absorbance at OD 340 nm)” value [2] is reported as “not”.
